Source: FireProtDB (doi:10.1021/bi035651x)
Values joined by “and” are separate entries in the source; they are usually repeats but may differ in a detail not shown here. Equal values may be shown once.

B1: Adenosine deaminase, P03958 (parent)
chain: MAQTPAFNKPKVELHVHLDGAIKPETILYFGKKRGIALPADTVEELRNIIGMDKPLSLPGFLAKFDYYMPVIAGCREAIKRIAYEFVEMKAKEGVVYVEVRYSPHLLANSKVDPMPWNQTEGDVTPDDVVDLVNQGLQEGEQAFGIKVRSILCCMRHQPSWSLEVLELCKKYNQKTVVAMDLAGDETIEGSSLFPGHVEAYEGAVKNGIHRTVHAGEVGSPEVVREAVDILKTERVGHGYHTIEDEALYNRLLKENMHFEVCPWSSYLTGAWDPKTTHAVVRFKNDKANYSLNTDDPLIFKSTLDTDYQMTKKDMGFTEEEFKRLNINAAKSSFLPEEEKKELLERLYREYQ

Variants of: B1
Conditions: Mus musculus; pH 7.4; 20 °C; Urea; NMR; Tris-HCl 20 mM; structure 2ADA; whole UniProt chain shown

W161F
ddG of mutation (higher = less stable): -36.4 kJ/mol and -25 kJ/mol
denaturant m value: 2.48 kcal/mol/M and 1.87 kcal/mol/M
denaturant midpoint (higher = more stable): 5.3 M and 5.57 M
unfolding free energy: 55 kJ/mol and 43.6 kJ/mol

W117F
ddG of mutation (higher = less stable): -12.4 kJ/mol and -27.3 kJ/mol
denaturant m value: 1.31 kcal/mol/M and 1.96 kcal/mol/M
denaturant midpoint (higher = more stable): 5.65 M and 5.59 M
unfolding free energy: 31 kJ/mol and 45.9 kJ/mol

W272F
denaturant m value: 1.05 kcal/mol/M and 2.25 kcal/mol/M
denaturant midpoint (higher = more stable): 5.42 M and 5.58 M
unfolding free energy: 23.8 kJ/mol and 52.5 kJ/mol
